Measurements taken from patent publication US20230151105A1 (HUTCHISON MEDIPHARMA, published 2023).
Changes are numbered by the printed parent chain. Numbers in names are those of the source.

Legend:
[1] = molecular target: T1, human OX40 expressed on the cell surface (human, UniProt P43489 29-277); assay: cell-based or functional assay
T1 sequence (looked up): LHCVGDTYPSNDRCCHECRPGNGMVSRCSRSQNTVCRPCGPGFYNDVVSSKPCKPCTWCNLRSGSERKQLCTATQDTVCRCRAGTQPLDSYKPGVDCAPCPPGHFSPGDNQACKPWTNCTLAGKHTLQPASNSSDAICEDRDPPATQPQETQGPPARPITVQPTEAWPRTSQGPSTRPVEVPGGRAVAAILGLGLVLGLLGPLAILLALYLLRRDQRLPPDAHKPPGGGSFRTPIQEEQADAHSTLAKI

[2] = molecular target: T2, recombinant human OX40-His protein (R & D Systems, Cat 9969-OX) (human, UniProt P43489 29-214); assay: SPR (Biacore), antibody captured on anti-human Fc CM5 chip, human OX40-His as analyte, 1:1 Langmuir
T2 construct: extracellular domain; Bought protein; also called human OX40 protein; human OX40-His fusion protein; not shown: His tag
T2 sequence (looked up): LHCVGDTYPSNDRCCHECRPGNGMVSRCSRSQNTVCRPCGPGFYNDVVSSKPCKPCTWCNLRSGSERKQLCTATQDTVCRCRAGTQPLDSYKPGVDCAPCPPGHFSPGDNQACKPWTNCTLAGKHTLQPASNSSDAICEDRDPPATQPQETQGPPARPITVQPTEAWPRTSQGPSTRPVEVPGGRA
Text: Biacore is used to determine the binding kinetic parameters by measuring surface plasmon resonance (SPR). This technology was used to detect the microscopic rate constants of the binding (kₐ) and dissociation (kd) of an antibody and an antigen. Based on the kₐ and the kd values, the affinity value of the antibody to the antigen is obtained. Both Biacore instrument and reagents were purchased from GE Healthcare. In particular, anti-human Fc antibody was immobilized on a CM5 sensor chip. The supernatants containing expressed antibody or the purified antibodies were diluted in a mobile phase buffer (10 mM HEPES, 150 mM NaCl, 3 mM EDTA, 0.05% Tween-20, pH 7.4), and flowed through the CM5 chip coated with anti-human Fc antibody. Then the serially diluted human OX40-His fusion proteins flowed through the detection chip to measure the binding of the antigen to the antibody, and then the mobile phase buffer flowed through the chip to detect the dissociation of the antigen from the antibody. The binding and dissociation signal data of the antigen and the antibody were collected at different concentrations, and fitted to the 1:1 Langmuir model to calculate the affinity between the antigen and the antibody.

[3] = molecular target: T1, human OX40 expressed on the cell surface; assay: cell-based or functional assay; remark: listed apart in the source
[4] = molecular target: T1, human OX40 expressed on the cell surface; assay: FACS on activated human CD4+ T cells
Text: (§1) Primary human PBMC were isolated from whole blood obtained from healthy donors through density gradient centrifugation with Ficoll-Paque PLUS (GE Healthcare, Cat 17-1440-02). After centrifuge, the cells in the middle layer were collected and washed 3 times with PBS to obtain PBMC. Then, human T cells were isolated with Pan T Cell Isolation Kit (Miltenyi biotec, Cat 130-096-535) by magnetic beads isolation method according to the protocol recommended by the instructions. T cells were resuspended in RPMI 1640 (containing 10% FBS and penicillin/streptomycin bi-antibiotics) medium, and PHA-L and IL-2 (or Con-A and hIL-2) were added for 2-day stimulation to induce the expression of OX40 from the T cells. The activated T cells were washed once with PBS containing 2% FBS, the serially diluted OX40 antibodies were added, and incubated at 4° C. for 30 minutes. The cells were washed twice with PBS containing 2% FBS, PE-labeled anti-human IgG secondary antibody (Biolegend, Cat 409304) (or PE-labeled anti-mouse IgG secondary antibody (Biolegend, Cat 405307)) and APC-CY7 labeled antibody human CD4 antibody (Biolegend, Cat 300518) were added. The binding of OX40 antibody on the surface of CD4 positive T cells was detected by BD Cantoll flow cytometry. A curve was fitted according to the median fluorescence intensity value, and EC₅₀ was calculated.

[5] = molecular target: T1, human OX40 expressed on the cell surface; assay: FACS on activated human T cells
Text: as §1
According to the detection method described in the preceding Example 1.2, FACS was used to analyze the binding activities of humanized antibodies to OX40 on activated human T cells.

[6] = molecular target: T1, human OX40 expressed on the cell surface; assay: cell-based or functional assay; remark: listed apart in the source
[7] = molecular target: T3, recombinant OX40-Fc protein (R & D, Cat 3388-OX) (human, UniProt P43489 29-214); assay: blocking ELISA: OX40-Fc coated, antibody titrated, competitor OX40L at 50 ng/ml
T3 construct: extracellular domain; also called OX40 (R & D systems, Cat 3388-OX); not shown: Fc tag
T3 sequence (looked up): T2 sequence (looked up)

[8] = molecular target: T2, recombinant human OX40-His protein (R & …); assay: ELISA, human OX40-His coated, anti-mouse IgG-HRP detection
Experimental: The recombinant human OX40-His (R & D, Cat 9969-OX) was coated onto 96-well plates. After blocking, serially diluted mouse serum or antibodies were added and incubated. After washing plates with PBS containing 0.5% Tween20, HRP-labeled anti-mouse IgG secondary antibody was added for incubation, and the plates were developed with […], and the OD450 value was read via a microplate reader.

B1: 11D4 (antibody, V domains shown)
VH: EVQLVESGGGLVQPGGSLRLSCAASGFTFSSYSMNWVRQAPGKGLEWVSYISSSSSTIDYADSVKGRFTISRDNAKNSLYLQMNSLRDEDTAVYYCARESGWYLFDYWGQGTLVTVSS
VL: DIQMTQSPSSLSASVGDRVTITCRASQGISSWLAWYQQKPEKAPKSLIYAASSLQSGVPSRFSGSGSGTDFTLTISSLQPEDFATYYCQQYNSYPPTFGGGTKVEIKR
T-cell agonistic activity, IFNγ released by T cells, EC50 [1]: 5.3 nM
Kd [2]: 2.51 nM
koff [2]: 0.000435 s⁻¹
kon [2]: 173000 M⁻¹ s⁻¹
Enhancement of IFNγ production by activated human T cells (ELISA), EC50 [3]: 8 nM
Ratio of IFNγ maximum effect to background (in fold) [3]: 5.6 fold
EC50 [4]: 0.4 nM

B2: Hu38E11-v1 (antibody, human IgG1, V domains shown)
VH: QVQLVQSGAEVKKPGASVKVSCKASGYTFTSYWVDWVRQAPGQGLEWIGNIYPSDSETHYNQKFKDRVTMTVDTSTSTVYMELSSLRSEDTAVYYCARSYGYYGTWFAYWGQGTLVTVSS
VL: DIVMTQSPDSLAVSLGERATINCRASESVDSSGNSFMHWYQQKPGQPPKLLIYRASNLESGIPDRFSGSGSGTDFTLTISSVQAEDVAVYYCQQSNEDPWTFGGGTKLEIK
notes: also called Hu38E11-vl
EC50 [5]: 5.03 nM
Agonistic activity on T cells, IFNγ release, EC50 [6]: 0.7 nM
maximum IFNγ concentration [6]: 21600 ng/mL

B3: Hu38E11-v2 (antibody, human IgG1, V domains shown)
VH: B2 VH with V79A, T91S
VL: B2 VL with I62V, V82L
EC50 [5]: 3.35 nM
Agonistic activity on T cells, IFNγ release, EC50 [6]: 1 nM
maximum IFNγ concentration [6]: 22500 ng/mL

B4: Hu38E11-v3 (antibody, human IgG1, V domains shown)
VH: B2 VH with I48M, V72R
VL: B2 VL
EC50 [5]: 3.48 nM
Agonistic activity on T cells, IFNγ release, EC50 [6]: 1.7 nM
maximum IFNγ concentration [6]: 22500 ng/mL

B5: Hu38E11-v4 (antibody, human IgG1, V domains shown)
VH: B2 VH with V79A, T91S
VL: B2 VL with V82L
EC50 [5]: 3.02 nM
Agonistic activity on T cells, IFNγ release, EC50 [6]: 0.9 nM
maximum IFNγ concentration [6]: 21700 ng/mL

B6: humanized 38E11 antibody Hu38E11 (IgG1) (antibody)
heavy: not shown
VL: B2 VL with I62V, V82L
EC50 [5]: 4.56 nM
expression of the luciferase reporter gene under the control of NF-κB, EC50 [1]: 0.7 nM
Kd [2]: 2.36 nM
koff [2]: 0.000394 s⁻¹
kon [2]: 167000 M⁻¹ s⁻¹
Agonistic activity on T cells, IFNγ release, EC50 [6]: 2.4 nM
maximum IFNγ concentration [6]: 24800 ng/mL

B7: Hu38E11 (IgG2) (antibody)
heavy: QVQLVQSGAEVKKPGASVKVSCKASGYTFTSYWVDWVRQAPGQGLEWMGNIYPSDSETHYNQKFKDRVTMTRDTSTSTVYMELSSLRSEDTAVYYCARSYGYYGTWFAYWGQGTLVTVSSASTKGPSVFPLAPCSRSTSESTAALGCLVKDYFPEPVTVSWNSGALTSGVHTFPAVLQSSGLYSLSSVVTVPSSNFGTQTYTCNVDHKPSNTKVDKTVERKCCVECPPCPAPPVAGPSVFLFPPKPKDTLMISRTPEVTCVVVDVSHEDPEVQFNWYVDGVEVHNAKTKPREEQFNSTFRVVSVLTVVHQDWLNGKEYKCKVSNKGLPAPIEKTISKTKGQPREPQVYTLPPSREEMTKNQVSLTCLVKGFYPSDIAVEWESNGQPENNYKTTPPMLDSDGSFFLYSKLTVDKSRWQQGNVFSCSVMHEALHNHYTQKSLSLSPGK
VL: B2 VL with I62V, V82L
T-cell agonistic activity, IFNγ released by T cells, EC50 [1]: 1.6 nM

B8: Hu38E11 (IgG1 N297A) (antibody, name in EU numbering)
heavy: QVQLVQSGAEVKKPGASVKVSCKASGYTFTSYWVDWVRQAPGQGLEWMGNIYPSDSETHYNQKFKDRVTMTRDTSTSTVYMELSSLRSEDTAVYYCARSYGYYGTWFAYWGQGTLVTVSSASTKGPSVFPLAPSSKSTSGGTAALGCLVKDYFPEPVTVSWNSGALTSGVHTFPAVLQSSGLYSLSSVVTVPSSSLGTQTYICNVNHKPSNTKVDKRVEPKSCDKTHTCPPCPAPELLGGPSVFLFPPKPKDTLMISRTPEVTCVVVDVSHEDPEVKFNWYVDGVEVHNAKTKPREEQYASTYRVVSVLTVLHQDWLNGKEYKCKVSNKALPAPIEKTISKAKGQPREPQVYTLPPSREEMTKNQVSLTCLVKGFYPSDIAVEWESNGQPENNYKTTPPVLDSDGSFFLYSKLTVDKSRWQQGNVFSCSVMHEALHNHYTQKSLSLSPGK
VL: B2 VL with I62V, V82L
notes: Hu38E11 variable regions with a human IgG1 constant region carrying N297A; also called Hu38E11 (hIgG1 N297A)
blocking of OX40L-mediated T cell activation, IFNγ secretion, IC50 [1]: 0.3 nM
inhibition of the expression of luciferase reporter gene under the control of NF-κB, IC50 [1]: 0.2 nM
IC50 [7]: ~0.3 nM

B9: OX40mAb24 (antibody, V domains shown)
VH: QVQLQESGPGLVKPSQTLSLTCAVYGGSFSSGYWNWIRKHPGKGLEYIGYISYNGITYHNPSLKSRITINRDTSKNQYSLQLNSVTPEDTAVYYCARYKYDYDGGHAMDYWGQGTLVTVSS
VL: DIQMTQSPSSLSASVGDRVTITCRASQDISNYLNWYQQKPGKAPKLLIYYTSKLHSGVPSRFSGSGSGTDYTLTISSLQPEDFATYYCQQGSALPWTFGQGTKVEIKR
EC50 [5]: 6.23 nM
Agonistic activity on T cells, IFNγ release, EC50 [6]: 7.1 nM
maximum IFNγ concentration [6]: 27400 ng/mL
Enhancement of IFNγ production by activated human T cells (ELISA), EC50 [3]: 14.7 nM
Ratio of IFNγ maximum effect to background (in fold) [3]: 9.4 fold
EC50 [4]: 1.3 nM

B10: hybridoma-derived antibody 38E11 (antibody, V domains shown)
VH: QVQLQQPGAELVRPGSSVQLSCKASGYTFTSYWVDWVKQRPGQGLQWIGNIYPSDSETHYNQKFKDKATLTVDKSSSTAYMQLSSLTSEDSAVYYCARSYGYYGTWFAYWGQGTLVTVSA
VL: DIVLTQSPASLAVSLGQRATISCRASESVDSSGNSFMHWYQQKPGQPPKLLIYRASNLESGIPARFSGSGSRTDFTLTINPVEADDVATYYCQQSNEDPWTFGGGTKLEIK
notes: Murine antibody purified from hybridoma supernatant by protein A
EC50 [8]: 0.276 nM
Enhancement of IFNγ production by activated human T cells (ELISA), EC50 [3]: 1.4 nM
Ratio of IFNγ maximum effect to background (in fold) [3]: 7.6 fold
EC50 [4]: 0.8 nM
